Source: patent US8580492B2, “Screening method for the identification of inhibitors of HIV Tat methylation by the lysine methyltransferase Set7/9” (priority 2007, dated 2013)
Ends that are not written are not given here.

T1: recombinant Set9 (Homo sapiens, UniProt Q8WTS6)
T1 construct: purchased Upstate
T1 sequence (Q8WTS6 whole entry, looked up): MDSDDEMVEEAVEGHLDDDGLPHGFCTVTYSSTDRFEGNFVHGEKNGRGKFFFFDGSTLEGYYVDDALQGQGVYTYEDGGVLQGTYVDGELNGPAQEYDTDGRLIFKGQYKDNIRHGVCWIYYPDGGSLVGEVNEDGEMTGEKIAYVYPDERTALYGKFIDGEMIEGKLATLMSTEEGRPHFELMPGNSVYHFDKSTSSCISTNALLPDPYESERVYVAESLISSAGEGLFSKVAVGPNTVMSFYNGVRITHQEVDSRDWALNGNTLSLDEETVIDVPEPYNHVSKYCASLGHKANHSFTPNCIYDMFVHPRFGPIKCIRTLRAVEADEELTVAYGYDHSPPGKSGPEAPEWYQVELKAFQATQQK

T2: p300 (Homo sapiens, UniProt Q09472)
T2 construct: Recombinant GST-p300 HAT was expressed in the BL21 strain of Escherichia coli; GST (N); made in house; host or cells: Escherichia coli BL21
T2 sequence (Q09472 1287-1663 limits assumed): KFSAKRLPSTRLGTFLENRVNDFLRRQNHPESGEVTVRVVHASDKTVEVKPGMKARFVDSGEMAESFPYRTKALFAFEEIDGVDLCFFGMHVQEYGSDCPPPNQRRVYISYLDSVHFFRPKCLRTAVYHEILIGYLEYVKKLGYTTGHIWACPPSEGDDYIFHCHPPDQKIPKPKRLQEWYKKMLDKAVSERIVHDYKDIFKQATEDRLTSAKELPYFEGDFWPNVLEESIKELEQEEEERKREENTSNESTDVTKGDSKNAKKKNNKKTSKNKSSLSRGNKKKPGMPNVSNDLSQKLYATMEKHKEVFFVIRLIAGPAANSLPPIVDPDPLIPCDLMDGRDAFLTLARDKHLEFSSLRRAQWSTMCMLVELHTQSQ


Assays:
Type in all cases: biochemical
[1] = biological target: T1, recombinant Set9; test: In vitro methylation assay with recombinant Set9 (radiolabeled SAM autoradiography; MALDI-TOF with nonradioactive SAM); conditions: confirmed by MALDI-TOF
Method: (§1) Methylation assays were performed as described. (Nishioka et al. (2002) supra. In brief, 2 μg of calf thymus histones (Sigma), synthetic Tat protein or recombinant GST-IκBα were incubated with 0, 0.5, 1 or 2 μg of recombinant Set9 (specific activity 182 mU/mg, Upstate) or 0, 1 and 2 μg of G9a (specific activity 98 mU/mg, Upstate) in a buffer containing 50 mM TrisHCl pH 8.5, 5 mM MgCl2, 4 mM DTT and 1.1 μCi of ^3H-labeled S-adenosyl methionine (SAM) (Perkin Elmer) 30 min at 30° C. Reactions were stopped with sodium dodecyl sulfate (SDS) sample buffer and fractionated in a 15% SDS-polyacrylamide gel electrophoresis (SDS-PAGE) gel. After Coomassie staining and destaining, gels were treated with Amplify (Amersham Biosciences) for 30 min, dried and exposed to hyper-film (Kodak) overnight. The reactions performed with Tat peptides contained 100 μM of the different peptides and 1 μg of Set9 enzyme and were fractionated in a 10-20% Tris-Tricine gel (BioRad). For mass-spectrometry analysis, reactions were performed in the presence of 2 mM SAM (New England Biolabs) and analyzed in a MALDI-TOF instrument. In vitro acetylation assays were performed as described. Ott et al. (1999) supra.

[2] = biological target: T2, p300; test: In vitro acetylation assay with recombinant p300 and 14C-AcCoA; conditions: recombinant p300, 14C-AcCoA, autoradiography
Method: Recombinant GST-p300 HAT was expressed in the BL21 strain of Escherichia coli and purified on glutathione-Sepharose beads (Amersham Pharmacia Biotech) following manufacturer's protocol.
as §1

[3] = test system: G9a; test: In vitro methylation assay with recombinant G9a; conditions: recombinant G9a 0, 1 and 2 μg, radiolabeled SAM
Method: as §1

Row | Molecule | methylation by Set9 [1] | acetylation by p300 [2] | methylation by G9a [3]
1 | K50Ac: ARM peptide carrying an acetyl group at position 50 (ISYGRK(Ac)KRRQRRRP; not fully specified) | No methylation |  | 
2 | K51me: ARM peptide monomethylated at K51 (ISYGRKK(Me)RRQRRRP) |  | acetylated | 
3 | Tat protein: full-length synthetic Tat protein (72 amino acids) (peptide, UniProt P04608 1-72, looked up, fragment) MEPVDPRLEPWKHPGSQPKTACTNCYCKKCCFHCQVCFITKALGISYGRKKRRQRRRAHQNSQTHQASLSKQ | methylated in response to increasing amounts of Set9 enzyme |  | did not result in methylation
